Measured values reported in PMC10967246, “A novel tetratricopeptide-repeat protein, TTP1, forms complexes with glutamyl-tRNA reductase and protochlorophyllide oxidoreductase during tetrapyrrole biosynthesis” (Journal of Experimental Botany, 2023).

How the values were obtained:
Experiment in all cases: MST; 200 nM RED-NHS-labelled 6×His–TTP1 constant, decreasing amounts of the binding partner; phosphate-buffered saline; Monolith NT.115, standard capillaries, excitation 100%, MST power 40%; Kd fit for 1:1 stoichiometry
Details in all cases: both partners purified
[1] = target: T1, recombinant His-tagged PORC (Arabidopsis, UniProt O48741 68-401)
T1 construct: protochlorophyllide oxidoreductase C, Arabidopsis; source: recombinant, His-tagged
T1 sequence (looked up): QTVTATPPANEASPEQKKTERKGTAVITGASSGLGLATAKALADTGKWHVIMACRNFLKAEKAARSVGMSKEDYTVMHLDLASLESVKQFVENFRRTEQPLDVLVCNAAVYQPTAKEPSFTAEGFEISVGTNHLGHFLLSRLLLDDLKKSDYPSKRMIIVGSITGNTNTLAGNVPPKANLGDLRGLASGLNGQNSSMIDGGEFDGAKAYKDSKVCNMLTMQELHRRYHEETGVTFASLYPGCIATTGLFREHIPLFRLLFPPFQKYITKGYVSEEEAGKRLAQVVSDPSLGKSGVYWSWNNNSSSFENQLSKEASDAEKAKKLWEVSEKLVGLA

[2] = target: T2, recombinant His-tagged PORB (Arabidopsis, UniProt P21218 67-401)
T2 construct: protochlorophyllide oxidoreductase B, Arabidopsis; source: recombinant, His-tagged
T2 sequence (looked up): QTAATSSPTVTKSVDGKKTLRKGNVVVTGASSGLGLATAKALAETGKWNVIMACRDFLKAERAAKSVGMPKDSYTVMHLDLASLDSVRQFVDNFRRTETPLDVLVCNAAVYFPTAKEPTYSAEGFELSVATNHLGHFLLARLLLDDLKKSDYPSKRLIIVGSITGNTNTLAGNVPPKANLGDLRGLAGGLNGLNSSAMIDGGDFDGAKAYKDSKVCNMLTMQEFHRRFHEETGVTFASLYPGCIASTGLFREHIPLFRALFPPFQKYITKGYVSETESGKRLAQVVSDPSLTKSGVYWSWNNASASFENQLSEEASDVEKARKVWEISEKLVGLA

[3] = target: T3, recombinant His-tagged full-length GluTR1 (Arabidopsis, UniProt P42804 62-543)
T3 construct: glutamyl-tRNA reductase 1 (HEMA1), Arabidopsis; called full-length GluTR1 in the legend; source: recombinant, His-tagged

[4] = target: T4, recombinant His-tagged GluTR-binding protein (GBP) (Arabidopsis, UniProt Q9LU39 43-317)
T4 construct: source: recombinant, His-tagged
T4 sequence (looked up): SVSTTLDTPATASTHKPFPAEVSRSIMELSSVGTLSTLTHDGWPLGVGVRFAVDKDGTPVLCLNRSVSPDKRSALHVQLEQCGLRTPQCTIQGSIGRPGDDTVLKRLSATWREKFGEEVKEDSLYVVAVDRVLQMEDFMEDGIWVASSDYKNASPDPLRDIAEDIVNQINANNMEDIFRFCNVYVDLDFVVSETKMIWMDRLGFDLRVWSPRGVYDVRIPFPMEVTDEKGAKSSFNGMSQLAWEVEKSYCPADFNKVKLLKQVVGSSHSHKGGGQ

Measured: Kd

B1: recombinant 6×His-tagged TTP1, RED-NHS labelled (natural protein)
chain: MLMTLAATTSVSFNSKLLLFRIRCSDSNPKRGFGSKKEEKDPALQQRKSSSKQSVSVPRKAPGLNTQFEGKSGRSFDIDFDERLENIRRSALEQKKTEVVKEFGPIDYDAPVKSDQKTIGLGTKVGVGIAVVVFGLVFALGDFLPTGSDSPTKNTTVVKNQISEEEKATLQQRLKEFETTLNGTPQDQAALEGAAVTLTELGDYSRAAAFLEKLAKERPTDPDVFRLLGEVNYELNNYEGSIAAYKISEKVSKGIDLEVTRGLMNAYLAAKKPDEAVKFLLDTRERLNTKKTSTTDSVTDETNLDPIQVELLLGKAYSDWGHISDAIAVYDQLISAHPEDFRGYLAKGIILRENGSRGDAERMFIQARFFAPNKAKALVDRYSKL
modifications: labelled with the RED-NHS Protein Labeling Kit, degree of labeling approximately 1.0
< 1000 nM: all assays above
